Test results as given in publication PMC9875831.
Where two headings read alike, the source gives them in different places.

Legend:
Assay in all cases: FRET or BRET
[1] = molecular target: A2AR-D2R heteromer (A2AR-Rluc with D2R-GFP2) (human) (UniProt P29274)
[2] = molecular target: A2AR-D2R heteromer (A2AR-Rluc with D2R-GFP2) (human) (UniProt P29274); remark: listed apart in the source
[3] = molecular target: A2AR-Rluc (adenosine A2A receptor fused to Renilla luciferase) (human) (UniProt P29274)
[4] = molecular target: D2R-Rluc (dopamine D2 receptor, long isoform, fused to Renilla luciferase) (human) (UniProt P14416)
UniProt P14416, sequence (P14416 whole entry, the tested form may be a part, canonical isoform): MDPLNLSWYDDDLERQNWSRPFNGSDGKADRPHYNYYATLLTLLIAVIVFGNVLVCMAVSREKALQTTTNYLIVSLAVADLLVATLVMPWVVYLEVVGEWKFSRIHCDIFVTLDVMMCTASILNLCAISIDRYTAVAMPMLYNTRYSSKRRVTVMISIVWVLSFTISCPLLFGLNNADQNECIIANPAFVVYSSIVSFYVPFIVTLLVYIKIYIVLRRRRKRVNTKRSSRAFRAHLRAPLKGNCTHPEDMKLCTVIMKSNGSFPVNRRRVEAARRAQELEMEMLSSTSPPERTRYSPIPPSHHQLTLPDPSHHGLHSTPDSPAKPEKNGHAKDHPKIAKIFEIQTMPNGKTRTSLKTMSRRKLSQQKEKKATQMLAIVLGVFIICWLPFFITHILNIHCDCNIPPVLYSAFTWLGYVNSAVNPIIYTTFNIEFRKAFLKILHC

| Substance | SRET50 [1] | SRET50 [2] | BRET50 [3] | BRET50 [4] |
| --- | --- | --- | --- | --- |
| calneuron-1-YFP (from UniProt Q9BXU9 1-261) (natural protein) | 38.5 | 25.1 | 40.5 | 25.7 |
| NCS-1-YFP (neuronal calcium sensor 1 fused to yellow fluorescent protein) (from UniProt P62166 1-190) (natural protein) | 24.1 | 8.9 | 42.4 | 23.4 |
